B1: EHEE_rd4_0726 (parent)
chain: DIEITTNGEEDAKRVIKELQKRNLEYHIEVHGNQWVIKVR

Variants of: B1
Experiment: folding stability dG (cDNA display proteolysis); higher = more stable
Settings: PBS, room temperature

Folding stability dG [kcal/mol] of substitutions, site by site:
I37: F 1.95; V 1.5; C 1.49; M 0.481; L 1.21
V36: Q 0.978; C 1.43; Y 1.7; F 1.85; M 1.37; H 1.47; W 1.16; I 2.7; A 0.418; R 1.7; N 0.793; K 1.67; S 0.912; L 1.93; T 1.77; E 0.046
Y26: T 0.301; W 1.95; I 1.53; M 1.13; A 1.07; F 2.54; L 1.35; P 0.491; G 0.722; H 0.887; V 1.42; S 0.005
E29: S 2.14; K 1.66; T 2.33; H 1.78; Q 2; V 2.3; M 1.93; D 1.56; W 1.82; F 2.27; R 1.77; Y 2.26; I 2.32; A 1.71; L 1.91; G 0.743; N 1.41
N33: L 1.94; K 1.92; G 2.34; Q 2.09; M 1.97; D 2.5; F 2.06; R 1.68; V 1.76; I 1.66; S 2.22; A 2; C 1.96; H 2.03; E 2.16; T 2.24; W 1.83; P 1.78; Y 1.98
E25: S 2.67; W 2.52; Q 2.6; N 2.28; Y 2.43; L 2.6; M 2.52; K 2.76; T 2.66; V 2.58; P 2.33; R 2.58
Q34: V 2.72; M 2.6; W 2.32; I 2.87; P -0.908; E 1.85; D 1.68; K 2.56; G 1.42; R 2.59; N 2.21; H 2.36; Y 2.5; A 1.92; L 2.65; F 2.65; T 2.58; S 2.1
K38: F 2.63; H 2.39; V 2.7; M 2.16; A 1.32; T 2.77; Y 2.68; I 3.04; G 0.141; L 2.34; Q 1.62; N 1.29; C 2.33; R 2.58; W 2.19; S 1.94; E 0.557; D -0.365
V39: A 1.06; M 1.44; H 0.549; I 2.58; Q -0.263; R -0.082; T 1.12; S 0.617; F 2.15; Y 2.08; L 1.98; W 1.83; P -0.609; G 0.015; K -0.993
W35: N -0.421; S 0.359; T 1.24; A 0.294; L 1.53; F 1.79; Y 1.85; C 1.35; M 1.44; H 0.787; V 1.67; K 0.49; Q 0.512; R 0.717; G -0.933; I 2.06
V30: G 0.63; K 2.36; Q 2.14; C 2.23; F 2.06; L 1.86; Y 2.12; N 1.57; D 0.526; E 1.16; R 2.43; W 1.81; M 2.01; P 0.866; T 1.71; S 1.32; H 1.94; I 2.72; A 1.41
R40: K 2.63; P 1.89; Q 2.11; Y 2.57; W 2.3; V 2.65; L 2.7; M 2.58; G 1.81; T 2.48; D 1.59; F 2.73; C 2.97; A 2.12; E 1.73; I 2.84; S 2.18; N 1.97; H 2.74
G32: A 1.44; L 1.38; K 1.35; P 1; R 1.09; N 1.94; I 1.21; W 0.99; V 1.08; T 1; F 1.51; Q 1.59; D 1.85; Y 1.19; E 1.9; S 1.21; M 1.43; H 1.39
I28: M 1.61; V 2.53; A 1.04; F 1.48; S 0.224; L 2.02; Y 1.48; E -0.159; H -0.075; T 1.09; Q 0.128; K -0.291; W 1.24
H27: T 3.34; M 2.54; A 2.34; D 2.48; W 2.69; Y 2.73; V 2.86; G 1.59; C 2.6; Q 2.45; I 2.84; F 2.57; K 2.46; R 2.59; N 2.17; E 2.66; S 3.05; L 2.37
H31: R 2.97; Q 2.29; W 2.08; D 1.79; E 1.68; K 2.5; G 0.973; M 2.32; I 2.72; F 2.36; L 2.27; S 2.12; P -0.6; C 2.31; T 2.17; A 1.88; Y 2.26; N 2.42; V 2.61

Source: the MegaScale stability set (Tsuboyama et al. 2023)
